In the supplement of paper PMC10567573:

B1: SPDEF (parent)
chain: FQELAGKELCAMSEEQFRQRSPLG
B2: CCND1 (parent)
chain: IRRAYPDANLLNDRVLRAMLKAEE

Variants of: B1
Assay: protein stability index of a GFP-peptide fusion (GPS, HEK-293T) (PSI 1-6); higher = more stable
Conditions: c terminus: a fixed tail appended
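Further: lentivirally expressed fusions sorted by FACS into six bins by GFP to DsRed ratio, PSI derived from sequencing read proportions per bin multiplied by bin number.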

First: FQELAGKYLCAMSEEQFRQRSPLG [E8Y]
Second: FQELAGKRLCAMSEEQFRQRSPLG [E8R]
The protein stability index of the first is higher: 1.89 for the first, 1.78 for the second.

Compared with FQELAGKFLCAMSEEQFRQRSPLG [E8F], FQELAGKELCNMSEEQFRQRSPLG [A11N] is higher in protein stability index: 2.79 for the first, 2.91 for the second.

Going from FQELAGKELCYMSEEQFRQRSPLG [A11Y] to FQELAGKELCWMSEEQFRQRSPLG [A11W], the protein stability index rises from 2.67 to 2.83.

Compared with FQELAGKELCAMREEQFRQRSPLG [S13R], FQELAGKELCAMKEEQFRQRSPLG [S13K] is lower in protein stability index: 2.73 for the first, 2.58 for the second.

Compared with FQELAGKELCAMIEEQFRQRSPLG [S13I], FQELAGKELCAMEEEQFRQRSPLG [S13E] is higher in protein stability index: 2.19 for the first, 2.61 for the second.

Going from FQELAGKELCAMHEEQFRQRSPLG [S13H] to FQELAGKELCAMSSEQFRQRSPLG [E14S], the protein stability index rises from 2.2 to 2.3.

Compared with FQELAGKELCAMSEEPFRQRSPLG [Q16P], FQELAGKELCAMSEEDFRQRSPLG [Q16D] is higher in protein stability index: 2.47 for the first, 3.23 for the second.

Going from FQELAGKELCAMSEETFRQRSPLG [Q16T] to FQELAGKEACAMSEEQFRQRSPLG [L9A], the protein stability index rises from 2.65 to 3.41.

Compared with FQELAGKEECAMSEEQFRQRSPLG [L9E], FQELAGKEVCAMSEEQFRQRSPLG [L9V] is lower in protein stability index: 4.93 for the first, 2.71 for the second.

Compared with FQELAGKEPCAMSEEQFRQRSPLG [L9P], FQELAGKEYCAMSEEQFRQRSPLG [L9Y] is lower in protein stability index: 3.83 for the first, 3.25 for the second.

Going from FQELDGKELCAMSEEQFRQRSPLG [A5D] to FQELCGKELCAMSEEQFRQRSPLG [A5C], the protein stability index falls from 3.71 to 2.69.

Going from FQALAGKELCAMSEEQFRQRSPLG [E3A] to FQLLAGKELCAMSEEQFRQRSPLG [E3L], the protein stability index falls from 3.06 to 2.22.

First: FQELAGKELNAMSEEQFRQRSPLG [C10N]
Second: FQELAGKELWAMSEEQFRQRSPLG [C10W]
The protein stability index of the first is higher: 3.1 for the first, 1.9 for the second.

First: FQELAGKELKAMSEEQFRQRSPLG [C10K]
Second: FQELAGKELGAMSEEQFRQRSPLG [C10G]
The protein stability index of the first is lower: 2.67 for the first, 3.05 for the second.

Going from FQELAGKELSAMSEEQFRQRSPLG [C10S] to FQELAGKELVAMSEEQFRQRSPLG [C10V], the protein stability index falls from 3.4 to 2.93.

Compared with FQELAGKELCAMSEEQSRQRSPLG [F17S], FQELAGKELCAMSEEQIRQRSPLG [F17I] is higher in protein stability index: 3.14 for the first, 3.22 for the second.

Compared with FQELAGKELCAMSEEQFRQRSPTG [L23T], FQELAGKELCAMSEEQFRQRSPYG [L23Y] is lower in protein stability index: 2.77 for the first, 2.59 for the second.

Going from FQELAGKELCAMSEEQFRQRSPIG [L23I] to FQELAGKELCAMSEEQFRQRSPLH [G24H], the protein stability index falls from 2.9 to 2.44.

Going from FQELAGKELCAMSEEQFRQRSPLC [G24C] to FQELAGKELCAMSEEQFRTRSPLG [Q19T], the protein stability index rises from 2.49 to 3.11.

Going from FQELAGKELCAMSEEQFRLRSPLG [Q19L] to FQELAGKELCAMSEEQFRRRSPLG [Q19R], the protein stability index rises from 2.24 to 2.4.

Going from FQELAGKELCAMSEEQFRARSPLG [Q19A] to FQELAGKELCAMSEEQFRNRSPLG [Q19N], the protein stability index falls from 2.67 to 2.11.

First: FQEQAGKELCAMSEEQFRQRSPLG [L4Q]
Second: FQEAAGKELCAMSEEQFRQRSPLG [L4A]
The protein stability index of the first is higher: 3.91 for the first, 3.35 for the second.

Going from FQEHAGKELCAMSEEQFRQRSPLG [L4H] to FQETAGKELCAMSEEQFRQRSPLG [L4T], the protein stability index rises from 3.85 to 3.94.

Going from FQEPAGKELCAMSEEQFRQRSPLG [L4P] to FQECAGKELCAMSEEQFRQRSPLG [L4C], the protein stability index rises from 3.99 to 4.02.

First: FQELALKELCAMSEEQFRQRSPLG [G6L]
Second: FQELAVKELCAMSEEQFRQRSPLG [G6V]
The protein stability index of the first is higher: 2.44 for the first, 1.68 for the second.

First: FQELAKKELCAMSEEQFRQRSPLG [G6K]
Second: FAELAGKELCAMSEEQFRQRSPLG [Q2A]
The protein stability index of the first is higher: 3.03 for the first, 2.07 for the second.

Compared with FPELAGKELCAMSEEQFRQRSPLG [Q2P], FTELAGKELCAMSEEQFRQRSPLG [Q2T] is lower in protein stability index: 2.86 for the first, 1.94 for the second.

Compared with FQELAGWELCAMSEEQFRQRSPLG [K7W], FQELAGFELCAMSEEQFRQRSPLG [K7F] is higher in protein stability index: 1.73 for the first, 2.18 for the second.

First: KQELAGKELCAMSEEQFRQRSPLG [F1K]
Second: LQELAGKELCAMSEEQFRQRSPLG [F1L]
The protein stability index of the first is higher: 4.58 for the first, 4.45 for the second.

Going from EQELAGKELCAMSEEQFRQRSPLG [F1E] to VQELAGKELCAMSEEQFRQRSPLG [F1V], the protein stability index falls from 5.36 to 4.27.

Compared with MQELAGKELCAMSEEQFRQRSPLG [F1M], AQELAGKELCAMSEEQFRQRSPLG [F1A] is higher in protein stability index: 3.98 for the first, 4.29 for the second.

Going from WQELAGKELCAMSEEQFRQRSPLG [F1W] to FQELAGKELCAMSEPQFRQRSPLG [E15P], the protein stability index falls from 2.93 to 2.41.

Compared with FQELAGKELCAMSEAQFRQRSPLG [E15A], FQELAGKELCAMSEEQFRQISPLG [R20I] is lower in protein stability index: 3.05 for the first, 2.86 for the second.

Compared with FQELAGKELCAMSEEQFCQRSPLG [R18C], FQELAGKELCAMSEEQFWQRSPLG [R18W] is lower in protein stability index: 2.51 for the first, 2 for the second.

Compared with FQELAGKELCAMSEEQFLQRSPLG [R18L], FQELAGKELCAMSEEQFRQRSRLG [P22R] is lower in protein stability index: 2.76 for the first, 2.53 for the second.

First: FQELAGKELCAMSEEQFRQRSWLG [P22W]
Second: FQELAGKELCAPSEEQFRQRSPLG [M12P]
The protein stability index of the first is lower: 1.75 for the first, 2.38 for the second.

Compared with FQELAGKELCATSEEQFRQRSPLG [M12T], FQELAGKELCAGSEEQFRQRSPLG [M12G] is lower in protein stability index: 3.4 for the first, 3.04 for the second.

Compared with FQELAGKELCADSEEQFRQRSPLG [M12D], FQELAGKELCAESEEQFRQRSPLG [M12E] is higher in protein stability index: 3.83 for the first, 4.28 for the second.

Going from FQELAGKELCAMSEEQFRQRPPLG [S21P] to FQELAGKELCAMSEEQFRQRDPLG [S21D], the protein stability index rises from 2.43 to 3.26.

First: FQELAGKELCAMSEEQFRQRRPLG [S21R]
Second: FQELAGKELCAMSEEQFRQRLPLG [S21L]
The protein stability index of the first is higher: 2.95 for the first, 2.6 for the second.

Variants of: B2
Assay: as above
Conditions: c terminus: a fixed tail appended

Going from IRRAYPDANLLNDRVLRAELKAEE [M19E] to IRRAYPDANLLNDRVLRAFLKAEE [M19F], the protein stability index rises from 3 to 3.26.

First: IRRAYPDANLLNDRVLRAQLKAEE [M19Q]
Second: IRRAYPDANLLNDRVLRAHLKAEE [M19H]
The protein stability index of the first is lower: 3.52 for the first, 3.54 for the second.

First: IRRAYPDANLLNDRVLRAKLKAEE [M19K]
Second: IRRAYPDANLLNDRVLRACLKAEE [M19C]
The protein stability index of the first is higher: 3.92 for the first, 3.48 for the second.

First: IRRAYPDANLLNDRVLRAALKAEE [M19A]
Second: IRRAYPDANLLNDRVLRAVLKAEE [M19V]
The protein stability index of the first is lower: 3 for the first, 3.61 for the second.

Compared with IRRAYPDANLLNDRVLRAPLKAEE [M19P], IRRAYPDANLLNDRVLRARLKAEE [M19R] is lower in protein stability index: 3.79 for the first, 3.15 for the second.

Going from IRRAYPDANLLNDRVLRATLKAEE [M19T] to IRRAYPDANLLNDRVLRAWLKAEE [M19W], the protein stability index rises from 3.38 to 3.96.

Compared with IRRAYPDANLLNDRVLRADLKAEE [M19D], IRRAYPDANLLNDRVLRANLKAEE [M19N] is higher in protein stability index: 4.26 for the first, 4.92 for the second.
